The values that follow come from a protein production outcome set (Wang et al. 2014).

This series is described as follows: label from the status in PepcDB records.

In the case of “MSPQSPSNSSISTDDQAGKNPAAAFGPNEWLVDEIYQQYLQDPNSVDRAWWDFFADYKPGAAAASAPAGTAAAGAAETTTPAPAAPTAAAPAAPAAPAPAAPAPAPAAPAPAAAPAVPKPAAAAPAPAAAKPAAAAPAQPKAAAATEAAEGPTFVPLRGPAAAVAKNMNASIEVPTATSVRAVPVKLLFDNRIVINNHLKRARGGKISFTHLIGYAMVQAIKAMPSMNWHYAEKDGKPTLVKPAHVNFGLAIDLVKPNGDRQLVVAGIKKAETLNFFEFWQAYEDIVRRARDGKLTMDDFTGVTVSLTNPGGLGTVHSVPRLMPGQSVIMGVGSMDYPAEFQGTSQDTLNKLGISKVMTLTSTYDHRVIQGAASGEFLRIVANFLLGEGGFYDEIFEALRIPYEPVRWLKDIDASHDDDVTKAARVFELIHSYRVRGHVMADTDPLEYRQRKHPDLDITEHGLTLWDLEREFAVGGFAGKSLMKLRDILGVLRDSYCRTTGIEFMHIQDPKQRKWIQDRIERSHSKPEREEQLRILRRLNAAEAFETFLQTKYVGQKRFSLEGGESVIPLLDAVIDSAAESRLDEVVIGMAHRGRLNVLANIVGKSYAQIFREFEGNLDPKSMHGSGDVKYHLGASGTFTGLDGEQIKVSLAANPSHLETVDPIIEGIARAKQDIINKGGTDFTVLPVALHGDAAFAGQGVVAETLNMSQLRGYRTGGTVHIVINNQVGFTAAPESSRSSMYATDVARMIEAPIFHVNGDDPEAVVRVARLAFEFRQAFNKDVVIDLICYRRRGHNESDNPAFTQPLMYDLIDKKRSVRKLYTESLIGRGDITLEEAEQALQDFQGQLEKVFTEVREAISTPGEAPAPEPQPEFPVAVPTAVSQEVVKRIAESQVNIPDHVTVHPRLLPQLQRRAAMIEDDTIDWGMGETLAIGSLLLEGTPVRLSGQDSRRGTFGQRHAVLIDRVTGEDFTPLQYLADDQARLNVYDSLLSEYAVMGFEYGYSLARPDALVMWEAQFGDFVNGAQTVVDEYISAAEQKWGQTSGVTLLLPHGYEGQGPDHSSARIERFLQLCAQNNMTVAQPTLPSNYFHLLRWQVHNPHHKPLVVFTPKSMLRLKAAASKTEEFTTGAFRPVIGDDTVDAAAVRKVVFCAGKLYYDLEAERKKRGATDAAAAETAIIRLERLYPLPGAELQAEIAKYPNAEKYLWAQEEPANQGAWPFIALNLIDHLDLAVGADVPHGERLRRISRPHSSSPAVGSAKRHQAEQEQLVREVFEA”, the protein production entry was “failed”. For the sequence “MSPSPLISHRAASADLAGMVRQARQRILLQGNVPGFDVARQIELLHGLAESELGRFLLLYRGLNAEWTHRLVTHQPGSGALAPLERVFYERLPAVLATRERHGHFRRALQRHLRPGCVVASVPCGWMSELLALDYSACPGVQLVGIDYDPEALDGATRLAAGHALAGQITLHRQDAWKLDTREGYDLLTSNGLNIYEPDDARVTELYRRFWQALKPGGALVTSFLTPPPALSPDSPWDMQAIDPHDLQLQQLVFTRLIQPRWNALRTHAQTRAQLEEAGFTDLRFEDDRARLFPTVIARKPA”, the protein production result is “not failed”. Consider “MSPTLSILIPVYKRDCRRLLEELYKQAEELSVGYEIILGDDCSGEPYTSQYIAYEQEGLCRLVSAEENMGAGRLRNRLAEEAQGEQLLILDSDTLPASPDFIERYLRHASGTTVVCGGFVYPPKSTNPLRQRYGAEVESRSAEERARKPHSGFISMAFMIPRKQMLATGFPPNMGMGYEDILFGERLRQAGIPILHIDNPVEHYHCDTAEGFLATTRSYLDNLYCHREELAELVSLLRAYNLLKRLHLEHHHHHH”, for which the protein production entry is recorded as “failed”. In the case of “MSPVINHPVLGPAAPSLGWVPAPRYWLRRQRVLDHMRTLERGRLLEIGCGGGALLADLSRLGFDCRALETSPAARVVARAMNADTEGDKIVETAPADWRGSFDVVAAFEVLEHIDDDVGALRDWRDWLVDGGHILISVPADPRKFNAADEWAGHFRRYDKEDLHKVLKQAGFSVVSSETYGYPLANFLEYFRASAHQLMRKQWAHRSRDDATAQSGVNRSLDSKVWPLYSSALGVRALRLADSLQKRFRDNGRGNGLLVIGRRI”, the protein production entry was “failed”. For the sequence “MSQEIAVIGSPAFTTGFQLAGVRKVENVADDEKDDDLDAAVEAVLADEDVGIAVMHDDDLAHLSRGVRQSVEASVEPTFVTIGGGASGASGLRDQIKRAIGIDLMDDDDDASAADTEAGDLEHHHHHH”, the protein production result is recorded as “not failed”. Regarding “MSQFFYIHPDNPQQRLINQAVEIVRKGGVIVYPTDSGYALGCKIEDKNAMERICRIRQLPDGHNFTLMCRDLSELSTYSFVDNVAFRLMKNNTPGNYTFILKGTKEVPRRLLQEKRKTIGMRVPSNPIAQALLEALGEPMLSTSLMLPGSEFTESDPEEIKDRLEKQVDLIIHGGYLGQKPTTVIDLTDDTPVVVREGVGDVKPFL”, the protein production result was “not failed”. Then “MSQNVISQPVEAQQSFARAVTESLPGLLLVCAVALVASFVAPKLEAYPLFKTYLSLKDFILAIIFGIIIRNTVGVPAVFQPGLRYSTIMTKTGIVIMGSSYSLAGLVSVGAQALVFIAVFLFGTALVMMWLCRKVGMSTPLAACLAAGMSVCGVSATIAIAPAVKAKNEDMAYSIAVVLMFGLLALIAFPLIGKVFNLTPEQFGAFAGVGIVNSAQVLAAGFGFSQEAGIVAGIYNIGRVVFLPFVVLMLAIMAAAQEAEQGNEVAKINKWQMIRDKFPLFVLGFLAIVCLNTAGVLTKPEVKMAKHFMEWAFLLGFASIGLTTRLSDLRAAGLNGFLFGFGVAGLKAALALAAVLLFMS”, with “failed”; and “MSQSTHQSTDHKRQSQDKNQTHAYAKVWLYFMYYWMIFGIGCYFGQYLPMSWRKPLSLGLLILILATLFIKRARKYGLVISHIYAIIVGLLSYALFTTYLQNLGAEVFYKNIILAIGAFIAFGIIGYFLIKDASSMGKYLFVTLIALIIAGIIGIFINNPIFHTVITIVSLLLFLLYTLYDFNRMKRGQFSPREMGFNLFINLLNIIEDILSLANRFKN”, with “failed”.

As to “MSQTTTYAGSAGTAKTEIETSTIRAISWRLIPFLVLAYFFSYLDRVNLGFAALTMNAELKFTPLIFSWGAGIFFIGYFIFEVPSNLALEKFGASRWIARIMVTWGIISALMAMVSGVTSFYVLRFLLGVAEAGFFPGIILYLTYWYPAEYRARFLAAFAIAVPVSTVIGAPVSGLLLGLDGVMGLKGWQWLFIIEGIPSVLLGIVTWFYLTDRPEKADWLSAEQKAWLKAKLDSEIAAKQAVKHLSLGEALSSPKVIALSLIYFGFVGALYGMQFWLPQIVKAFGLTNAQTGFVTAIPYLFGTVAMILWARHSDATRERVMHVGAPLLLTAVALGVSSYLTDPTLTMVVLTVAAIGVFCCFGVFWTLPTAWLSGTAAAGGIALINSIGNLAGFGGPYLIGWVKEATGQTSTGLLVLAVLPLLAGILVFVGGHDSKHEFAGQGR”, the protein production result is “failed”.

Regarding “MSRAKAAPVAGPEVAANRAGRQARIVAILSSAQVRSQNELAALLAAEGIEVTQATLSRDLEELGAVKLRGADGGTGIYVVPEDGSPVRGVSGGTDRMARLLGELLVSTDDSGNLAVLRTPPGAAHYLASAIDRAALPQVVGTIAGDDTILVVAREPTTGAQLAGMFENLR”, the protein production result is recorded as “not failed”. Take “MSRDEVLTRMRRFGPLAVVAVLCAAAFASGLVEHISLEELRLRGTQLQAFAHENPLLCAAIYLAVYVGTVAISLPGALILSLTGGFLFGPIGGGLAAVTGATGGSTVTFLVFRTAFGEALPFKSSAFIARIAEGLKGDAFNYLLTLRLIPAFPLLAVNVAAGVMNVRVRTFLLASVLGMIPSSFVYAGIGAGLGHVFAKGGPVTVESLLSPRIYLPIIGMGVLAFLPPLWRHWRNGRDVASLDEK”: the protein production entry is given as “failed”. For the sequence “MSRDPTYTINEHDLSFADGRFYVTFKADKSSETVRLNSSCLGNTIIKKLQVEDDNTMHDFVKPKVTTQQAFGLAQQVKELDLQLKDPKSDLWGKIKFNNKAMLVEYANKEMSSAIAQSAEQILLQVKSIDDERYSKFEQTLNGIKQTVKSESVESARTQLASMFDSRISGLDGKYSRLSQTIDSLSSRLDDGVGNYSTLSQKVSGIDLRVSNAANDVSRLSQTAQGLQSQITNANQNYSSLSQTVQGLQTTVRDNQSNATSRINQLSDLISTKVSKGDVETTIAQSYDKIAFAIRDKLPASKMSGSEIISAINLDRSGVKITGKNITLDGNSYISNAVIKDAHIANMDAGKINTGYLNANRIATEAITGEKIKMDYAFFNKLTANEGYFRTLFAKDIFATSVQSVTLSASKITGGVLAATNGASQWDLNNANMTFNRDATINFNSKNNALVRKDGTHTAFVHFSNATPKGYRGSALYASIGITSSGDGIDSASSGRFAGLRSFRYATGYNHTAAVDQTELYGDNVLIADDFNINRGFKFRPDKMEKVLDMNDLYAAVVALGRCWGHLANVGWNTAHSNFTSAVSRELNNYITKI”, the protein production entry was “failed”.

“MSRFHWLWPWRSSTSLRVTTVLRLGADQPAIVAAARASQACTRSPRTTRDAMAMHTNGSVFAGWDGSVIQAQQLQHQLAQRVLLHDEVSATPQLLAGFDVGFEDDGQTTRAAAVLLDAHTLLPLETHVARAPTSMPYVPGLLSFRELPALLQALARLSRTPDLVFIDGQGIAHPRRLGIAAHFGVVTGLPCIGIAKQRLAGSFAEPGPERGDHTPILLGGAQIGWALRSKPRCNPLIVSPGHCVSMQGALGWTLRTLRSYRLPEPTRLADRLASRRGKMPALAADTPLLF”: the protein production result is recorded as “failed”.

With “MSRGPLDPRAPLYKAVQIARRRAAEEGDSSWRVVAQAVEELARRVERLYELASRHGLSKPFWLSPRVLEVLRSVEDGDKGGAIERARSLSESLIPAGLAGEYSLATGTAARVLASIIFLASAAYIGVEGIQAPSTPAAVTTLALASFALAALLAASTHYSLYLLAVSTGASLAIATAYRPVVDSYSILMALYSAVLGFAAAAYSSYTRRKFYRMLRMLERGM”, the protein production entry is reported as “failed”. As to “MSRIGKLLLGIVNLGPIGFMAVAVYRHGDLPASAVAVQVAVVAVLLGIYLRHLAGNDQLTRGLRRGWALVLLAGNWAVFPVYWHQFVWQDPRER”, the protein production result is recorded as “failed”. Regarding “MSRINKFVLTVSLLIFIMISAVACGIYTQMVKERVYSLKQSVIDTAFAVANIAEYRRSVAIDLINTLNPTEEQLLVGLRTAYADSVSPSYLYDVGPYLISSDECIQVKEFEKNYCADIMQVVKYRHVKNTGFISFDGKTFVYYLYPVTHNRSLIFLLGLERFSLLSKSLAMDSENLMFSLFKNGKPVTGDEYNAKNAIFTVSEAMEHFAYLPTGLYVFAYKKDVYLRVCTLIIFFAALVAVISGASCLYLVRRVINRGIVEKEAIINNHFERVLDGGLFFSAADVKKLYSMYNSAFLDDLTKAMGRKSFDEDLKALPEKGGYLCLFDVDKFKNINDTFGHLLGDEVLMKVVKILKSQIPVDKGKVYRFGGDEFAVIYTGGTLEELLSILKEIVHFQVGSINLSTSIGVAHSNECPTVERLKMLADERLYKSKKNGRAQISWQ”, the protein production entry is reported as “failed”.

On to “MSRKTMNPTTVTQQLQKTYQAVGDGLLSEAFGLVRASVPSQQSHFLTRIDDLENVYRQLLSYFAQGVKDEKQAEMLLYLKRKLIGLAAEVHRESVVAQGTGLFYDRLRYRRSIGFESLVTLLEQAETSTVRKQFDELVRLIFDSLWTADALTDEEAAALSHAGEYIRLVAASALTMALQQQWHSKKLYFLLEELARPDITADYRARLLVGVVLTLRSYPHHTRLYYNEIALRLEAVNEHIPLEPTLEMLSIRFLFACETESITKHLQTELFSDIQKIAPDLRKFGMGDTESIQETGNPEWMEELEKSGLGDKIREFSELQLEGADVMHSSFMNLKGSSFFREMHNWFLPFDAAHSRIAPLLEENAVLKQLVEAIGPQLCNSDRYSFIVSMESLPAALRGSAMGAVGGELDALKEQIKQDVPVGETGKLDTAIKSYLQDLYRFYKVCERKNEFDDIFLSPIPPDLPVLDRYLYKRDTLLHTAEFLFRRKHYDRAAKLLADLAEGKESATDTTLHQKLGFSLQQQGLFAQALAAYSRAELIDTENEWLLKRMAHCYRQLCRPAEAAEIYERLFERNPHEATLLLQRGNALVEDSRYDEALQCFFRYEFSVDDASKARRPIAWCLFLTGQYERAGDYYRTILESDDLSTFTDRLNAGHTSLAMGQIPVAIDHYLAGLKLTPNGKDEFLAAYTADIPVLLKAGIEDAVIRLIPEVLRLHPN”, for which the protein production result was “failed”.
